This is an account of results in paper PMC3030633 (Journal of molecular biology, 2010).

In test [1] the target is the histone peptide containing H3K4me3. The test can be described thus: ITC + fluorescence polarisation. A general note: In fluorescence polarisation assays a small probe gives low polarisation when free and higher when bound to something large.
The target of test [2] is PHF2 (1-451), containing both the PHD and Jumonji domains (human, UniProt O75151 1-451). Briefly: fluorescence polarisation.
PHF2 (1-451), containing both the PHD and Jumonji domains (human, UniProt O75151 1-451), sequence (O75151 1-451): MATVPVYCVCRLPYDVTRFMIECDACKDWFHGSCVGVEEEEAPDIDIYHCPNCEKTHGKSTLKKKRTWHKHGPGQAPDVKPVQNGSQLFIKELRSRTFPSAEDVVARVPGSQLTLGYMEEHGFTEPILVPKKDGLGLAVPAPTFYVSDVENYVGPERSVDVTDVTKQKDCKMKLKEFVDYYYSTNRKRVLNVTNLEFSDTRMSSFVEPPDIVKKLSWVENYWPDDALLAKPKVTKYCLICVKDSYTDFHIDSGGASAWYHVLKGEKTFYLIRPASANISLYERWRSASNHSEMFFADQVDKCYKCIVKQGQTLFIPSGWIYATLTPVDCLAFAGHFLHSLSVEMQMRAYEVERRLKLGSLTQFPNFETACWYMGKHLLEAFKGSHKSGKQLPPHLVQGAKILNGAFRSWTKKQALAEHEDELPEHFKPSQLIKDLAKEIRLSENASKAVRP

No end group written: not given here. fluorescein = fluorescein label on the C-terminus of the peptide; Me3 = trimethyl-lysine

PHF2 (1-451), containing both the PHD and Jumonji domains (from UniProt O75151 1-451) (domain or fragment), sequence (O75151 1-451): as above

On to “PHF2 (1-451), containing both the PHD and Jumonji domains (from UniProt O75151 1-451) (domain or fragment)”, for which the Kd in test [1] was 230 to 270 nM.

Regarding ARTK(Me3)QTARKSTGGKA-fluorescein (peptide, UniProt P68431 2-16, looked up) [H3(1-15)K4me3 peptide, C-terminal fluoresceinated], the binding result in test [2] is recorded as “binds”.

As usually defined, the Kd is the equilibrium constant for the complex coming apart.
